Reference: patent US20250114463A1, “LIVER-TARGETED DRUG AND USE THEREOF” (HANMI PHARM. CO., LTD., priority 2021, published 2025)
Bridges are numbered along the chain shown (N, C = ends). Where no end group is shown, it is not given here. [ ]: non-standard residue; d: D form. The star is where a group is joined. Acetyl(2-(4-imidazolyl)) = O=C(Cc1c[nH]cn1)*; Aib = CC(C)(N)C(=O)O

T1: human GIP receptor (human, UniProt P48546 22-466)
T1 sequence (looked up): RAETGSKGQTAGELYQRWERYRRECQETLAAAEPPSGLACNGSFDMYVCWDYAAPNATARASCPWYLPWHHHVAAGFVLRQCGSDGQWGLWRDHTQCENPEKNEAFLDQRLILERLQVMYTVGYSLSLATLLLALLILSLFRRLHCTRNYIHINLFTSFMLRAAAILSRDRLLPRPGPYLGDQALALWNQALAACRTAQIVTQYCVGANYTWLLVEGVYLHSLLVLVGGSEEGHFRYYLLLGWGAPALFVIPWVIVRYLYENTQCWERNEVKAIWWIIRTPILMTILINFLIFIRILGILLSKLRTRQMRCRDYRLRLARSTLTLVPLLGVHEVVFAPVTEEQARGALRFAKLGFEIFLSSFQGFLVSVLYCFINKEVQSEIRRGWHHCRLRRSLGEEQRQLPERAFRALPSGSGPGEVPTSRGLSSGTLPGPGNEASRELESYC


Experiments:
Assay in all cases: cell-based or functional assay
human GCG receptor = human GCG receptor (human, UniProt P47871 26-477)
Sequence of human GCG receptor (P47871 26-477): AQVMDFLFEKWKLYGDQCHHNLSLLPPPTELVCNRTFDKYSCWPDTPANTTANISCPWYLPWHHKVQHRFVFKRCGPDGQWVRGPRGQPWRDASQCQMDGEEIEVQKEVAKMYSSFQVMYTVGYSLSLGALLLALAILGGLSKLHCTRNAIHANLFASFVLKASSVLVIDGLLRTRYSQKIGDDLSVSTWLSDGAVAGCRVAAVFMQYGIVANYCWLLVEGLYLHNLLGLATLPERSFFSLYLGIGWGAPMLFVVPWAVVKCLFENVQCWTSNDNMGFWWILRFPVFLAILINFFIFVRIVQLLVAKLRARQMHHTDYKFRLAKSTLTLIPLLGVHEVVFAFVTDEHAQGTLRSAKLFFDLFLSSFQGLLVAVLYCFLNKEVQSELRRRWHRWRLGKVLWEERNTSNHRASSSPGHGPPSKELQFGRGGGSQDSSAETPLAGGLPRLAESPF

human GLP-1 receptor = human GLP-1 receptor (human, UniProt P43220 24-463)
human GIP receptor = biological target: T1, human GIP receptor

Row | Binder | in vitro Activity Compared to Native Peptide (%), vs Glucagon (human GCG receptor) [%] | in vitro Activity Compared to Native Peptide (%), vs GLP-1 (human GLP-1 receptor) [%] | in vitro Activity Compared to Native Peptide (%), vs GIP (human GIP receptor) [%]
1 | Y[Aib]QGTFTSDYSKYLDEKRAKEFVQWLLDCHPSSGQPPPS (bridge 16-20; not fully specified (C-terminus)) [triple agonist of SEQ ID NO: 97] | 62.8 | 10.5 | 2.6
2 | H[Aib]EGTFTSDYSIAMDEIHQKDFVNWLLAQKC (bridge 16-20; not fully specified (C-terminus)) [triple agonist of SEQ ID NO: 79] | 4.9 | 41.5 | 1.4
3 | H[Aib]QGTFTSDVSKYLDGQAAQEFVAWLLAGGGPSSGAPPPSC-NH2 [triple agonist of SEQ ID NO: 10] | < 0.1 | 46 | < 0.1
4 | [Acetyl(2-(4-imidazolyl))][Aib]QGTFTSDYSKYLDEKRQKEFVQWLLNTKC (bridge 16-20; not fully specified (C-terminus)) [triple agonist of SEQ ID NO: 88] | 0.3 | 9.6 | < 0.1
5 | [Acetyl(2-(4-imidazolyl))][Aib]QGTFTSDYSIAMDEIHQKDFVNWLLAQKC (bridge 16-20; not fully specified (C-terminus)) [triple agonist of SEQ ID NO: 92] | < 0.1 | 0.8 | 0.4
6 | [Acetyl(2-(4-imidazolyl))][Aib]QGTFTSDYSIAMDEIHQKDFVNWLLAQC (bridge 16-20; not fully specified (C-terminus)) [triple agonist of SEQ ID NO: 85] | < 0.1 | 4.3 | 0.3
7 | [Acetyl(2-(4-imidazolyl))][Aib]QGTFTSDYSKYLDEKRQKEFVNWLLAQC (bridge 16-20; not fully specified (C-terminus)) [triple agonist of SEQ ID NO: 86] | 0.4 | 28.4 | 0.2
8 | Y[Aib]QGTFTSDYSKALDEKAAKDFVNWLLDHHPSSGQPPPSC (bridge 16-20; not fully specified (C-terminus)) [triple agonist of SEQ ID NO: 99] | 14.9 | 20.9 | 57.7
9 | [Acetyl(2-(4-imidazolyl))][Aib]QGTFTSDYSIAMDEIHQKDFVNWLLNTC (bridge 16-20; not fully specified (C-terminus)) [triple agonist of SEQ ID NO: 87] | < 0.1 | 0.9 | < 0.1
10 | Y[Aib]QGTFTSDYSKALDEKAAKEFVNWLLDHHPSSGQPPPSC (bridge 16-20; not fully specified (C-terminus)) [triple agonist of SEQ ID NO: 98] | 8.2 | 28.1 | 47.1
11 | H[Aib]QGTFTSDVSKYLDGQAAQEFVAWLLAGC (not fully specified (C-terminus)) [triple agonist of SEQ ID NO: 9] | 0.13 | 32.1 | < 0.1
12 | [Acetyl(2-(4-imidazolyl))][Aib]EGTFTSDYSIAMDEIHQKDFVNWLLAQKC (bridge 16-20; not fully specified (C-terminus)) [triple agonist of SEQ ID NO: 90] | < 0.1 | 7.4 | < 0.1
13 | Y[Aib]QGTFTSDYSKYLDEKRAKEFVQWLLCHHPSSGQPPPS (bridge 16-20; not fully specified (C-terminus)) [triple agonist of SEQ ID NO: 95] | 0.4 | 2.1 | < 0.1
14 | [Acetyl(2-(4-imidazolyl))][Aib]QGTFTSDYSKYLDEKRQKEFVQWLLNTC (bridge 16-20; not fully specified (C-terminus)) [triple agonist of SEQ ID NO: 81] | 0.3 | 7.8 | < 0.1
15 | [Acetyl(2-(4-imidazolyl))][Aib]EGTFTSDYSIAMDEIHQKDFVDWLLAEC (bridge 16-20; not fully specified (C-terminus)) [triple agonist of SEQ ID NO: 84] | < 0.1 | 4.2 | < 0.1
16 | [Acetyl(2-(4-imidazolyl))][Aib]QGTFTSDYSKYLDEKRQKEFVQWLLDTKC (bridge 16-20; not fully specified (C-terminus)) [triple agonist of SEQ ID NO: 89] | 0.7 | 7.1 | < 0.1
17 | [Acetyl(2-(4-imidazolyl))][Aib]QGTFTSDYSIAMDEIHQKDFVNWLLNTKC (bridge 16-20; not fully specified (C-terminus)) [triple agonist of SEQ ID NO: 94] | < 0.1 | 0.5 | < 0.1
18 | Y[Aib]QGTFTSDYSKALDEKAAKEFVQWLLDQHPSSGQPPPSC (bridge 16-20; not fully specified (C-terminus); also: ring type not given here) [triple agonist of SEQ ID NO: 100] | 12.7 | 42.2 | 118
19 | Y[Aib]QGTFTSDYSKALDEKAAKEFVNWLLDQHPSSGQPPPSC (bridge 16-20; not fully specified (C-terminus); also: ring type not given here) [triple agonist of SEQ ID NO: 101] | 13.9 | 23.2 | 40.1
20 | Y[Aib]QGTFTSDYSKYLDEKRAKEFVQWLLDHCPSSGQPPPS-NH2 (bridge 16-20) [triple agonist of SEQ ID NO: 96] | 195 | 34.4 | 5.2
21 | [Acetyl(2-(4-imidazolyl))][Aib]QGTFTSDYSKYLDEKRQKEFVQWLLDTC (bridge 16-20; not fully specified (C-terminus)) [triple agonist of SEQ ID NO: 82] | 1.1 | 9.5 | < 0.1
22 | [Acetyl(2-(4-imidazolyl))][Aib]QGTFTSDYSKYLDEKRQKEFVNWLLAQKC (bridge 16-20; not fully specified (C-terminus)) [triple agonist of SEQ ID NO: 93] | 0.3 | 5.7 | 0.7
23 | [Acetyl(2-(4-imidazolyl))][Aib]EGTFTSDYSIAMDEIHQKDFVNWLLAQC (bridge 16-20; not fully specified (C-terminus)) [triple agonist of SEQ ID NO: 83] | 1.3 | 47.3 | 0.4
24 | H[Aib]EGTFTSDYSIAMDEIHQKDFVDWLLAEKC (bridge 16-20; not fully specified (C-terminus)) [triple agonist of SEQ ID NO: 80] | 0 | 8.1 | 0.1
25 | [Acetyl(2-(4-imidazolyl))][Aib]EGTFTSDYSIAMDEIHQKDFVDWLLAEKC (bridge 16-20; not fully specified (C-terminus)) [triple agonist of SEQ ID NO: 91] | 16.8 | 31.9 | 0.3
